What is called Cmax is the peak of the concentration-time curve. Usually Tmax stands for the time from dosing to the highest level.

Data on 1 compound can be found in patent US12233115B2, “Long-acting parathyroid hormone” (Extend Biosciences, Inc., priority 2022, dated 2025).

Like-named read-outs stand apart in the source and are kept apart here.

The nature of data set [1]: Single dose pharmacokinetics of EXT607 in male rats. The following applies: rat, in vivo, sc; rats, after subcutaneous dosing; read-out: terminal half-life. How it is done:
In a single dose pharmacokinetic study, EXT607 was formulated in PBS and groups of male rats (n=3) were dosed at a volume of 1 ml/kg as follows: Group 1, 100 μg/kg intravenous; Group 2, 30 μg/kg subcutaneous; Group 3, 100 μg/kg subcutaneous; Group 4, 300 μg/kg subcutaneous. Blood (0.25 mL) was collected via the jugular vein cannula, transferred into tubes containing K2EDTA, and kept on wet ice until processed for plasma. Blood samples were collected at 0 (predose), 0.083 (IV only), 0.25, 0.5, 1, 2, 4, 6, 8, 12, 24, 36, 48, 60 and 72 h postdose.
Pharmacokinetic parameters were determined from the plasma concentration versus time data (Table 4) by a non-compartmental analysis with uniform weighting using Phoenix® WinNonlin® Version 6.3 (Certara L.P. (Pharsight), St. Louis, MO). The concentration versus time data were analyzed using the IV bolus or extravascular administration models. Best fit Lambda z ranges were used.

For data set [2], the system named is healthy human participants. The data set can be described thus: Single dose pharmacodynamics of EXT608 in healthy humans (serum calcium, endogenous PTH(1-84), urinary calcium). It is filed as in vivo. The settings on record: any dose level tested, about 36 hours post-administration (data not shown). Here is the method:
EXT608 vastly improves the serum half-life in humans in a dose-dependent manner. Sterile EXT608 formulations were prepared at a concentration of 0.4 mg/ml in 10 mM sodium acetate buffer pH=5.5, 4.5% mannitol, and 0.25% Polysorbate 80 and filled into sterile vials. Healthy human participants were administered EXT608 by subcutaneous injection in the abdomen at doses of 0, 36, 108, 216, or 324 micrograms (n=3). Pharmacodynamics: Blood samples were collected at −24, −1, 0.5, 1, 2, 4, 8, 12, 18, 24, 36, 48, and 72 hours relative to dosing as well as on Days 5, 7, 14, 21, and 28 after dosing. They were processed to serum and submitted to Quest Diagnostics for standard blood chemistry analysis including total calcium and albumin. EXT608 raised serum calcium levels in a dose-dependent fashion and was able to maintain elevated calcium levels for 24 h. Blood samples (1.5 ml) were collected at −1, 4, 24, 48, and 72 hours relative to dosing as well as on Days 5, 7, 14, 21, and 28 after dosing. They were processed to EDTA plasma and submitted to Quest Diagnostics for intact PTH(1-84) analysis (Test Code #35202). In healthy humans, under conditions of elevated serum calcium, the body will attempt to restore normal calcium levels by a variety of mechanisms including suppression of endogenous PTH(1-84). […]

Data set [3] can be described thus: Repeat dose pharmacokinetics of EXT608 in male and female cynomolgus monkeys. It is filed as in vivo. The following applies: cynomolgus monkey; for Cmin: 0-48 h; for AUC(0-t): sc. Here is the method:
21-Day Experiment: EXT608 was formulated in 20 mM sodium acetate pH=5.5 buffer with 0.8% sodium chloride. In a repeat dose toxicokinetic study, groups of 4 cynomolgus monkeys (2 males+2 females weighing approximately 2.5 kg each) were subcutaneously dosed every other day at a volume of 0.05 ml/kg with either 1.4, 7 or 20 μg/kg of EXT608. On the last day of dosing, Day 21, blood samples (˜1.0 ml) were collected at t=0 (pre-dose), 0.5, 1, 3, 6, 12, 24, 48, and 72 h. Each blood sample was collected from the saphenous vein into tubes containing K2EDTA and centrifuged (˜2700 g, ˜10 min, ˜5° C.) within 1 hour of collection. Plasma was recovered and divided evenly into duplicate aliquots and frozen. 90-Day Experiment: EXT608 was formulated in 10 mM sodium acetate pH=5.5 buffer with 0.8% sodium chloride and 0.1% Polysorbate 80. In a repeat dose toxicokinetic study, groups of 6 cynomolgus monkeys (3 males+3 females) were subcutaneously dosed every other day at a volume of 0.05 ml/kg with either 0.7 or 2 μg/kg of EXT608. On the last day of dosing, Day 89, blood samples (˜1.0 ml) were collected at t=0 (pre-dose), 0.5, 1, 3, 6, 12, 24, 48, and 72 h. Plasma was prepared as described above for the 21-Day experiment. […] Group-averaged EXT608 levels as a function of time are shown in FIG. 14 for the last dose administration after either 21 days of every other day dosing (20, 7, and 1.4 μg/kg) or 89 days of every other day dosing (2 and 0.7 μg/kg). Surprising, the PK profiles changed as a function of dose level. […] Pharmacokinetic parameters were determined from the plasma concentration versus time data (Table 7) by a non-compartmental extravascular administration model with uniform weighting using Phoenix® WinNonlin® Version 6.4 (Certara L.P. (Pharsight), Princeton, NJ). Pharmacokinetic analysis was performed on data for individual animals collected from t=0 to 72 h following the last administered dose. […] It is noted that the t1/2 values were calculated from less than three half-lives of data. […] The Cmax/Cmin ratio represents the peak-to-trough ratio of EXT608 concentration that is observed during a dosing period. […] Without being bound by theory, the low peak-to-trough ratios observed at low doses could be the result of a slower rate of absorption of EXT608 from the subcutaneous space into circulation. A low peak-to-trough ratio is desirable in many therapeutic applications including parathyroid hormone replacement therapy. This is because it allows dosing at levels close to the ideal efficacious dose without going too high where toxicity is observed, or too low where the efficacy is reduced.

Setting [4] is: in vivo, 1.4 ug/kg, every-other-day SC 1.4 μg/kg, 21 days.

For the compound `C=C1CC[C@H](OCCCNC(=O)CCOCCOCCOCCOCCOCCOCCOCCOCCOCCOCCOCCOCCOCCOCCOCCOCCOCCOCCOCCOCCOCCOCCOCCOCCOCCOCCOCCOCCOCCOCCOCCOCCOCCOCCOCCOCCNC(=O)CCN2C(=O)CC(SC[C@H](NC(=O)[C@H](Cc3ccccc3)NC(=O)[C@H](CC(N)=O)NC(=O)[C@H](Cc3c[nH]cn3)NC(=O)[C@@H](NC(=O)[C@H](CC(=O)O)NC(=O)[C@H](CCC(N)=O)NC(=O)[C@H](CC(C)C)NC(=O)[C@H](CCCCN)NC(=O)[C@H](CCCCN)NC(=O)[C@H](CCCNC(=N)N)NC(=O)[C@H](CC(C)C)NC(=O)[C@H](Cc3c[nH]c4ccccc34)NC(=O)[C@H](CCC(=O)O)NC(=O)[C@@H](NC(=O)[C@H](CCCNC(=N)N)NC(=O)[C@H](CCC(=O)O)NC(=O)[C@H](CCSC)NC(=O)[C@H](CO)NC(=O)[C@H](CC(N)=O)NC(=O)[C@H](CC(C)C)NC(=O)[C@H](Cc3c[nH]cn3)NC(=O)[C@H](CCCCN)NC(=O)CNC(=O)[C@H](CC(C)C)NC(=O)[C@H](CC(N)=O)NC(=O)[C@H](Cc3c[nH]cn3)NC(=O)[C@H](CCSC)NC(=O)[C@H](CC(C)C)NC(=O)[C@H](CCC(N)=O)NC(=O)[C@@H](NC(=O)[C@H](CCC(=O)O)NC(=O)[C@H](CO)NC(=O)[C@@H](NC(=O)[C@@H](N)CO)C(C)C)[C@@H](C)CC)C(C)C)C(C)C)C(N)=O)C2=O)C/C1=C/C=C1\CCC[C@]2(C)[C@@H]([C@H](C)CCCC(C)(C)O)CC[C@@H]12` (stereo partly drawn) [EXT608], the half-life in data set [1] is 8 to 15 h; in data set [3] (in vivo, repeated every-other-day SC dosing, across doses, calculated from less than three half-lives of data, read-out: t1/2 of elimination) it was 34.7 to 51 h. Also, in data set [2], the “effect on urinary calcium” value is given as “did not cause a significant increase”. In addition, the Cmin in data set [3] (every-other-day SC 0.7 μg/kg, 89 days) amounted to 0.600 ng/mL; in data set [3] (every-other-day SC 1.4 μg/kg, 21 days), 0.485 ng/mL; in data set [3] (every-other-day SC 2 μg/kg, 89 days), 0.635 ng/mL; in data set [3] (every-other-day SC 7 μg/kg, 21 days) it was 0.991 ng/mL; in data set [3] (every-other-day SC 20 μg/kg, 21 days), 1.97 ng/mL. Besides, the AUC(0-t) in data set [3] (in vivo, 0.7 ug/kg, every-other-day SC 0.7 μg/kg, 89 days, read-out: AUC0-48 h) turned out to be 45.4 ng·h/mL; in data set [3] (in vivo, 0.7 ug/kg, every-other-day SC 0.7 μg/kg, 89 days, read-out: AUClast) it was 61.6 ng·h/mL; in data set [3] (in vivo, 1.4 ug/kg, every-other-day SC 1.4 μg/kg, 21 days, read-out: AUC0-48 h), 41.5 ng·h/mL; in data set [3] (in vivo, 1.4 ug/kg, every-other-day SC 1.4 μg/kg, 21 days, read-out: AUClast) it was 48 ng·h/mL; in data set [3] (in vivo, 2 ug/kg, every-other-day SC 2 μg/kg, 89 days, read-out: AUC0-48 h), 63.1 ng·h/mL; in data set [3] (in vivo, 7 ug/kg, every-other-day SC 7 μg/kg, 21 days, read-out: AUC0-48 h), 147 ng·h/mL. Further, the AUC(0-t) in data set [3] (in vivo, 20 ug/kg, every-other-day SC 20 μg/kg, 21 days, read-out: AUC0-48 h) is 401 ng·h/mL. The Cmax in data set [3] (setting [4]) was 1.63 ng/mL; in data set [3] (in vivo, 20 ug/kg, every-other-day SC 20 μg/kg, 21 days), 38.1 ng/mL. Moreover, in data set [3] (setting [4]), the Tmax was 1.8 h.
